In paper doi:10.1101/2024.09.18.613542 (bioRxiv, 2024):
Positions count from the first letter of the chain named. Like-named read-outs stand apart in the source and are kept apart here.

B1: 4D8H1 (antibody, V domains shown)
VH: EVKLLESGGGLVQPGGSLKLSCAASGFDFSRYWMSWVRQAPGKGLEWIGEINPDSSTINYTPSLKDKFIISRDNAKNTLYLQMSKVRSEDTALYYCARYYSRFAYWGQGTLVTVSA
VL: QAVVTQESALTTSPGETVTLTCRSSTGAVTTRNYANWVQEKPDHLFTGLIGDTNNRAPGVPARFSGSLIGDKAALTITGAQTEDEAIYFCALWYSNHWVFGGGTKLTVL
B2: 3E10E3 (antibody, V domains shown)
VH: QVTLKESGPGILQPSQTLSLTCSFSGFSLSTYGIGVGWIRQPSGKGLEWLAHIWWNDNKYYNTALKSRLTISKDTSNNQVFLKIASVDTADTATYYCARSLPYFDYWGQGTTLTVSS
VL: DIQMTQSPASLSASVGETVTITCRASENIYSYLAWYQQKQGKSPQFLVYNAKTLAEGVPSRFSGSGSGTQFSLKINSLQPEDFGSYYCQHHYGIPRTFGGGTKLEIK
B3: 2H2F3 (antibody, V domains shown)
VH: QVQLQQSGAELVRPGVSVKISCKGSGYTFTDYAMHWVKQSHAKSLEWIGIISTYYGNASYNQKFKGKATMTVDKSSSTAYMELARLTSEDSAIYYCARVPYYGSSYAMDYWGQGTSVTVSS
VL: DVLMTQTPLSLPVSLGDQASISCRSSQNIVHSDGNTYLEWYLQKPGQSPKLLIYKVSNRFSGVPDRFSGSGSGTDFTLKISRVEAEDLGVYYCFQGSHVPWTFGGGTKLEIK
B4: biotinylated-2H2F3 (antibody, V domains shown)
VH: B3 VH
VL: B3 VL
B5: 5F3D11 (antibody, V domains shown)
VH: not shown
VL: B3 VL with L3V, N28S, I29L, D33N, E39H, Y92F, F94S, G96S, S97T, W101P

Assays:
Test in all cases: ELISA
RoxP_11-tagless = target: T1, RoxP_11-tagless (Cutibacterium porci (WP_154564006.1))
T1 chain: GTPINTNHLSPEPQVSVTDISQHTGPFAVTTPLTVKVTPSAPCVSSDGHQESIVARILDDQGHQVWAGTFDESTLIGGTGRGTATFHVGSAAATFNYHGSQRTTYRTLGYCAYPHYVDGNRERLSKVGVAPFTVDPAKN

8His-TEV-RoxP_1 = target: T2, 8His-TEV-RoxP_1 (Cutibacterium acnes KPA171202)
T2 chain: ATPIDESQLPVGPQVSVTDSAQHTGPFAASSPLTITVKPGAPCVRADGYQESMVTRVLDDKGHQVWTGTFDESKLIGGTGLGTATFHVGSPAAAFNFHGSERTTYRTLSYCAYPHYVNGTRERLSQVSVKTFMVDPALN

[1] = target: T3, endogenous RoxP secreted by C. acnes strain KPA171202 (Cutibacterium acnes KPA171202, UniProt Q6A6F6)
[2] = target: T4, endogenous RoxP secreted by C. acnes strain ATCC 6919 (Cutibacterium acnes ATCC 6919 …, UniProt Q6A6F6, strain)
[3] = target: T3, endogenous RoxP secreted by C. acnes …; remark: listed apart in the source
[4] = target: T4, endogenous RoxP secreted by C. acnes …; remark: listed apart in the source

Binder | binding result (RoxP_11-tagless) | binding result (8His-TEV-RoxP_1) | further results
B1 | no binding (tested: 155 ng/mL) | binds | binding result [1]: binds; binding result [2]: binds
B2 | binds | binds | 
B3 |  | binds | 
B4 |  |  | binding result [3]: binds; binding result [4]: binds
B5 |  | binds | 
